# Assay results from patent US20260207732A1.
# Experiments:
# [1] = molecular target: Mut18 (Influenza A virus A/Brisbane/02/2018 (H1N1)); assay: BLI (Octet), HA-foldon-His on Ni-NTA tips, IgG in solution
# [2] = molecular target: Mut10 (Influenza A virus A/Brisbane/02/2018 (H1N1)); assay: as above
# [3] = molecular target: Mut23 (Influenza A virus A/Brisbane/02/2018 (H1N1)); assay: as above
# [4] = molecular target: Mut27 (Influenza A virus A/Brisbane/02/2018 (H1N1)); assay: as above
# [5] = molecular target: Mut24 (Influenza A virus A/Brisbane/02/2018 (H1N1)); assay: as above
# [6] = molecular target: Mut17 (Influenza A virus A/Brisbane/02/2018 (H1N1)); assay: as above
# [7] = molecular target: Mut18 (Influenza A virus A/Brisbane/02/2018 (H1N1)); assay: BLI (Octet) after 7D37C and trypsin; HA on Ni-NTA tips
# [8] = molecular target: Mut10 (Influenza A virus A/Brisbane/02/2018 (H1N1)); assay: as above
# [9] = molecular target: Mut23 (Influenza A virus A/Brisbane/02/2018 (H1N1)); assay: as above
# [10] = molecular target: Mut27 (Influenza A virus A/Brisbane/02/2018 (H1N1)); assay: as above
# [11] = molecular target: Mut24 (Influenza A virus A/Brisbane/02/2018 (H1N1)); assay: as above
# [12] = molecular target: Mut17 (Influenza A virus A/Brisbane/02/2018 (H1N1)); assay: as above
# [13] = molecular target: Mut24 (Influenza A virus A/Brisbane/02/2018 (H1N1)); assay: BLI (Octet) after 7D37C and trypsin; footnote to the marked cell
Substance,Octet response (nm) [1] [nm],Octet response (nm) [2] [nm],Octet response (nm) [3] [nm],Octet response (nm) [4] [nm],Octet response (nm) [5] [nm],Octet response (nm) [6] [nm],Octet response (nm) [7] [nm],Octet response (nm) [8] [nm],Octet response (nm) [9] [nm],Octet response (nm) [10] [nm],Octet response (nm) [11] [nm],Octet response (nm) [12] [nm],fold reduction of affinity (KD) against control [13] [fold]
FI6v3 monoclonal antibody (IgG),0.811,0.968,0.984,0.398,0.93,0.878,0.484,0.737,0.745,0.313,0.406,0.748,
CR9114 monoclonal antibody (IgG),0.731,0.805,0.901,0.337,0.872,0.814,0.464,0.729,0.808,0.314,0.0617,0.754,100
